Reference: patent publication US20220298257A1 (ELPIS BIOPHARMACEUTICALS, published 2022)

B1: EP97-B03 (IgG) (antibody, V domains shown)
VH: QLVQSGAEVKKPGASVKVSCKASGYTFSSYGITWVRQAPGQGLEWMGWISAYNGNTNYAQKFQGRVTLTTDTSTSIAYMELRSLTSDDTAVYYCATGGQEDYWGQGTLVTVSS
VL: not shown
B2: EP160-H02 (IgG) (antibody, V domains shown)
VH: QVQLVQSGAEVKKPGASVKVSCKASGYTFTSYGISWVRQAPGQGLEWMGGIIAYNGNTNYAQKLQGRVTMTTDTSTSTAYMELRSLRSDDTAVYYCARDPPEYSSSAGTDYWGQGTLVTVSS
VL: EIVMTQSPATLSVSPGEGVTLSCRASQSVSSNLAWYQQRPGQAPRLLIYGASIKATDVPDRFSGGGSGTDFTLSITNLQSEDFAVYYCQQYHTWSPVTFGGGTKVEIK
B3: EP97-B03 scFv (scFv)
scFv: QLVQSGAEVKKPGASVKVSCKASGYTFSSYGITWVRQAPGQGLEWMGWISAYNGNTNYAQKFQGRVTLTTDTSTSIAYMELRSLTSDDTAVYYCATGGQEDYWGQGTLVTVSSGGGGSGGGGSGGGGSEIVLTQSPATLSVSPGERATLSCRASQSVSSNLAWYQQKPGQAPRLLIYGASTRATGIPARFSGSGSGTEFTLTISSLQSEDFAVYYCQQYNSWPPLTFGGGTKVEIK
notes: VH-VL orientation; not shown: C-terminal flag and 6xHIS tag
B4: EP160-G04 scFv (scFv)
scFv: QVQLVQSGAEVKKPGASVKVSCKASGYTFSSYGITWVRQAPGQGLEWMGWISAYNGNTNYAQKFQGRVTLTTDTSTSIAYMELRSLTSDDTAVYYCATGGQEDYWGQGTLVTVSSGGGGSGGGGSGGGGSEIVMTQSPATLSVSPGERATLSCRASQSVSSNLAWYQQKPGQAPRLLIYDASTRATGIPARFSGSGSGTEFTLTISSLQSEDFAVYYCQQYHNWAPLTFGGGTKVGIK
notes: as for B3
B5: EP160-E03 scFv (scFv)
scFv: EVQLVQSGGGVVQPGKSLRLSCAASGFTFSSYGMHWVRQAPGKGLEWVAVIWYDGSNKYYADSVKGRFTISRDNSKNTLYLQMNSLRAEDTAVYYCARDGWTGFDYWGQGTTVTVSSGGGGSGGGGSGGGGSEIVLTQSPATLSVSPGEGVTLSCRASQSVSSNLAWYQQRPGQAPRLLIYGASIKATDVPDRFSGGGSGTDFTLSISNLQSEDFAVYYCQQYHTWPPVTFGGGTKVEIK
notes: as for B3
B6: EP35-C6 scFv (scFv)
scFv: QVQLVESGGGVVQPGGSLRLSCAASGFPFSRFGIHWVRQAPGKGLDWVAFIRTDGGSQHYADSVKGRFTISRDNSENMVYLQMNSLRVDDTALYYCAKDPPRVTGNTGYDYDWGQGVQVTVSSGGGGSGGGGSGGGGSDIVMTQSPDSLAVSLGERATINCKSSQSVLYSANNKNCLAWYQQKSGQPPKLLIYWASTRESGVPGRFSGSGSGTDFTLTISSLQAEDVAVYYCQQYYSPPRTFGQGTKLEIK
notes: VH-VL orientation; also called EP35-C06; not shown: C-terminal flag and 6xHIS tag
B7: EP160-F04 scFv (scFv)
scFv: EVQLVQSGAEVKKPGASVKVSCKASGYTFTSYGISWVRQAPGQGLEWMGWISAYNGNTNYAQKLQGRVTMTTDTSTSTAYMELRSLKSDDTAVYYCAISIGAFDIWGQGTMVTVSSGGGGSGGGGSGGGGSEIVMTQSPATLSVSPGEEVTLSCRASQSVSSNLAWYQQRPGQAPRLLIYGASIKATDVPDRFSGGGSGTDFTLSISNLQSEDFAVYYCQQYHTWPPVTFGGGTKVEIK
notes: as for B3
B8: EP97-F01 scFv (scFv)
scFv: QVQLVQSGAEVKKPGASVKVSCKASGYTFTSYGISWVRQAPGQGLEWMGWISAYNGNTNYAQKLQGRVTMTTDTSTSTAYMELRSLRSDDTAVYYCARDHIAAAGDYWGQGTLVTVSSGGGGSGGGGSGGGGSEIVMTQSPATLSVSPGEGVTLSCRASQSVSSNLAWYQQRPGQAPRLLIYGASIKATDVPDRFSGGGSGTDFTLSITNLQSEDFAVYYCQQYHTWPPVTFGGGTKVEIK
notes: as for B3
B9: EP160-H02 scFv (scFv)
scFv: QVQLVQSGAEVKKPGASVKVSCKASGYTFTSYGISWVRQAPGQGLEWMGGIIAYNGNTNYAQKLQGRVTMTTDTSTSTAYMELRSLRSDDTAVYYCARDPPEYSSSAGTDYWGQGTLVTVSSGGGGSGGGGSGGGGSEIVMTQSPATLSVSPGEGVTLSCRASQSVSSNLAWYQQRPGQAPRLLIYGASIKATDVPDRFSGGGSGTDFTLSITNLQSEDFAVYYCQQYHTWSPVTFGGGTKVEIK
notes: as for B3
B10: EP97-G05 scFv (scFv)
scFv: EVQLVQSGAEVKKPGASVKVSCKASGYTFTSYGISWVRQAPGQGLEWMGWISAYNGNTNYAQKLQGRVTMTTDTSTSTAYMELRSLRSDDTAVYYCARDYGDPSGDDYWGQGTLVTVSSGGGGSGGGGSGGGGSEIVLTQSPATLSVSPGEGVTLSCRASQSVSSNLAWYQQRPGQAPRLLIYGASIKATDVPDRFSGGGSGTDFTLSISNLQSEDFAVYYCQQYHTWPPVTFGGGTKVEIK
notes: VH-VL orientation; also called EP097-G05; not shown: C-terminal flag and 6xHIS tag
B11: EP97-A10 scFv (scFv)
scFv: QVQLVQSGAEVKRPGASVKVSCKASGYTFTSYGISWVRQAPGQGLEWMGWISAYNGNTNYAQKLQGRVTMTTDTSTSTAYMELRSLRSDDTAVYYCARDPGIAVAGTVDYWGQGTLVTVSSGGGGSGGGGSGGGGSEIVMTQSPATLSVSPGEGVTLSCRASQSVSSNLAWYQQRPGQAPRLLIYGASIKATDVPDRFSGGGSGTDFTLSISNVQSEDFAVYYCQQYHTWTPVTFGGGTKVEIK
notes: as for B3
B12: M971 IgG antibody (antibody, V domains shown)
VH: QVQLQQSGPGLVKPSQTLSLTCAISGDSVSSNSAAWNWIRQSPSRGLEWLGRTYYRSWYNDYAVSVKSRITINPDTSKNQFSLQLNSVTPEDTAVYYCAREVTGDLEDAFDIWGQGTMVTVSS
VL: DIQMTQSPSSLSASVGDRVTITCRASQTIWSYLNWYQQRPGKAPNLLIYAASSLQSGVPSRFSGRGSGTDFTLTISSLQAEDFATYYCQQSYSIPQTFGQGTKLEIK
notes: Known fully human anti-CD22 antibody used as IgG; also called IgG M971
B13: EP160-G05 scFv (scFv)
scFv: EVQLVQSGAEVKKPGASVKVSCKASGYTFTSYGISWVRQAPGQGLEWMGWISAYNGNTNYAQKLQGRVTMTTDTSTSTAYMELRSLRSDDTAVYYCARDPSMDVWGQGTTVTVSSGGGGSGGGGSGGGGSEIVLTQSPATLSVSPGERATLSCRASQSVSSNLAWYQQKPGQAPRLLIYGASTRATGIPARFSGSGSGTEFTLTISSLQSEDFAVYYCQQYNSWPPITFGQGTRLEIK
notes: as for B3

biological target: T1, full-length human CD22 fused with flag and Myc tags at the C-terminus, on HEK293 or K562 cells (human, UniProt P20273 20-847); assay: cell-based or functional assay
T1 sequence (looked up): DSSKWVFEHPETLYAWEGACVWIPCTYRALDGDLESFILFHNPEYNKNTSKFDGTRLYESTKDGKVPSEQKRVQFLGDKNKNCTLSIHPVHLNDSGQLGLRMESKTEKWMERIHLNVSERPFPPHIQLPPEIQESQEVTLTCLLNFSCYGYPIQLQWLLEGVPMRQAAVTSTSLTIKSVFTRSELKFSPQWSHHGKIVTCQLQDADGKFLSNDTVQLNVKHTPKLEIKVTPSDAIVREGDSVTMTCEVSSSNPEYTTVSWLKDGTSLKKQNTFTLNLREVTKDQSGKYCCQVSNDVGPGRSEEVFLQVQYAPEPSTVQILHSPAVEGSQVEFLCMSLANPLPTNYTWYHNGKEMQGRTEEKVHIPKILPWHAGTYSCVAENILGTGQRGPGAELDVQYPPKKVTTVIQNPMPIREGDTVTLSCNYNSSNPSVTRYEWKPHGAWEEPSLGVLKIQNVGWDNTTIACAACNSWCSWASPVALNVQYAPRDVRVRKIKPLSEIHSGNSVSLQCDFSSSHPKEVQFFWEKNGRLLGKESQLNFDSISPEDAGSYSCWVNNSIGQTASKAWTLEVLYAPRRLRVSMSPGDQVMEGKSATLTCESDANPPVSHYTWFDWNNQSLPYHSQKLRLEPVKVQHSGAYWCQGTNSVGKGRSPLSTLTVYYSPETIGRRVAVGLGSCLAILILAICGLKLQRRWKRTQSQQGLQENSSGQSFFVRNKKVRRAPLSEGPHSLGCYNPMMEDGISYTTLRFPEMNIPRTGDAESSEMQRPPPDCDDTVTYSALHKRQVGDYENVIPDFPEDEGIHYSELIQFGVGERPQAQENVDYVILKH

Binder	EC50 in ADCC assay (Promega ADCC Bioreporter, CD22/HEK293 target cells) [nM]
B1	3.71
B2	~73.8

biological target: T2, human CD22-Fc fusion protein (human, UniProt P20273 20-687, limits assumed); assay: SPR Biacore T200; CD22-Fc captured on Protein G chip, scFv as analyte;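 note: run in 1×HBST buffer, with the response of reference flow cell 1 subtracted from the CD22 capture cell and kinetics fitted in Biacore T200 evaluation software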
T2 construct: also called recombinant CD22-Fc fusion protein; not shown: Fc part
T2 sequence (looked up): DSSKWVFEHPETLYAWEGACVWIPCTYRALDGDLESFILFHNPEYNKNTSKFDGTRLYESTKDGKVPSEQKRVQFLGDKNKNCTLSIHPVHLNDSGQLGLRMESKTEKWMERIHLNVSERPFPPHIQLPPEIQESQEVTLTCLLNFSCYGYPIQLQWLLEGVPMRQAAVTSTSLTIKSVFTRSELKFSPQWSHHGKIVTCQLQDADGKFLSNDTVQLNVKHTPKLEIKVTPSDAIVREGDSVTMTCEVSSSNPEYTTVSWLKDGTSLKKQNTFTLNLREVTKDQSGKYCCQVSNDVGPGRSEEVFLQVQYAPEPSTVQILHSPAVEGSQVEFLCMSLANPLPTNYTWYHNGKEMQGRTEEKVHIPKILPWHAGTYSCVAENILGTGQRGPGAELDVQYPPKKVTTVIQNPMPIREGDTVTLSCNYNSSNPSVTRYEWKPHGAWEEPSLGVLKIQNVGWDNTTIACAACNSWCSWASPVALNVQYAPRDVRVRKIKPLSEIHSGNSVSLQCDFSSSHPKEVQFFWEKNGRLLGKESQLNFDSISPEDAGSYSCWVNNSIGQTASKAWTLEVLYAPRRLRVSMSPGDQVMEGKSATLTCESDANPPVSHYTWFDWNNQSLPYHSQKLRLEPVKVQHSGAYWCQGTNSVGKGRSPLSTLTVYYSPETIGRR

Binder	Kd [nM]	koff [s⁻¹]	kon [M⁻¹ s⁻¹]
B3	0.846	0.000318	376000
B4	0.322	4.03e-05	125000
B5	5.52	0.00164	297000
B6	15.8	0.000985	62500
B7	5.89	0.000283	40500
B8	0.219	0.000195	888000
B9	1.84	0.000112	60900
B10	0.166	4.19e-05	252000
B11	3.57	0.000145	40500

biological target: T1, full-length human CD22 fused with flag …; assay: ELISA, IgG format; antigen format not described

Binder	EC50 [nM]
B12	0.059

biological target: T1, full-length human CD22 fused with flag …; assay: cell-based or functional assay; remark: another data set of the same source

Binder	T½ (Hour) of internalization, CD22/HEK293 cells, pHrodo secondary [Hour]
B1	5.26
B12	6.07

biological target: T1, full-length human CD22 fused with flag …; assay: FACS, scFv titrated on CD22-expressing cells, anti-His Alexa 488

Binder	EC50 [nM]
B3	0.7
B13	2.9
B4	1.1
B5	6.8
B6	19.3
B7	2.79
B8	10
B9	0.68
B10	3.3
B11	1
